These are literature values, as cited in PMC4437577.

A word on the pKd: it is the Kd on a negative log10 scale, so that one unit is a factor of ten.

pKd: −log10 of the molar value.

The target in the series is PR-B (Homo sapiens) (UniProt P06401). The series is described as follows: analytical ultracentrifugation.

In the case of PR-B (from UniProt P06401), the pKd was 5.06.
